T1: CrgA (Pseudomonas aeruginosa SJTD-1, UniProt Q9I4D7 1-304)
T1 sequence: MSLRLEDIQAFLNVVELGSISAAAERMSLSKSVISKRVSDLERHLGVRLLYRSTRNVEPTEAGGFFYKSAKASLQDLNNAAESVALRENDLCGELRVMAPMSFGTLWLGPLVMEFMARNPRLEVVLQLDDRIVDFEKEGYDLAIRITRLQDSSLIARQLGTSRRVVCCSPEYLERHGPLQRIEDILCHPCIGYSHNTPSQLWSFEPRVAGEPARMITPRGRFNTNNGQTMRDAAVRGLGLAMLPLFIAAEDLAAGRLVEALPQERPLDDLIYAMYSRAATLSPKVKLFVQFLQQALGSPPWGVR

B1: alkB2-b2 (dsDNA)
DNA 1: AGGACAATTGTCAGACAATCTAACAAGCGGCGGACAGAACGAAGATAAATACGAGGACTTCCC
DNA 2: GGGAAGTCCTCGTATTTATCTTCGTTCTGTCCGCCGCTTGTTAGATTGTCTGACAATTGTCCT
B2: alkB2-U46 (dsDNA)
DNA 1: AGGACAATTGTCAGACAATCTAACAAGATAAATACGAGGACTTCCC
DNA 2: GGGAAGTCCTCGTATTTATCTTGTTAGATTGTCTGACAATTGTCCT
B3: alkB2-b1 (dsDNA)
DNA 1: AGGACAATTGTCAGACAATCTAACAGGGATGGGGCAGGCCGGCCAAGGGAGATAAATACGAGGACTTCCC
DNA 2: GGGAAGTCCTCGTATTTATCTCCCTTGGCCGGCCTGCCCCATCCCTGTTAGATTGTCTGACAATTGTCCT

Molecular target: T1, CrgA
Assay: EMSA; EMSA: 20 mM Tris-HCl, 50 mM NaCl, 1 mM DTT, 0.1 mM EDTA, pH 7.5, 37 C 30 min, 4 pmol DNA in 20 uL, 8% native PAGE; footprinting at 25 C
Details: protein: recombinant; tags: His-tag (pET28a, Ni-NTA; NdeI/BamHI cloning, N-terminal tag likely); chain copies: 4; label: 5'-FAM on strand 2; blunt

Binder	binding result
B1	binds
B2	no binding
B3	binds

Source: publication PMC6422896, “CrgA Protein Represses AlkB2 Monooxygenase and Regulates the Degradation of Medium-to-Long-Chain n-Alkanes in Pseudomonas aeruginosa SJTD-1” (Frontiers in Microbiology, 2019)
